# Assay results taken from patent publication US7605127.
# How the values were obtained:
# [1] = biological target: c-met protooncogene product (HGF receptor) on B5/589 human mammary epithelial cells (human) (UniProt P08581); experiment: cell-based or functional assay
# [2] = biological target: c-met protooncogene product (HGF receptor) on B5/589 human mammary epithelial cells (human) (UniProt P08581); experiment: competition of 125I-HGF/NK1 cross-linking to B5/589 cells by excess unlabeled HGF/NK1 or HGF/SF
substance,measurement,setting,value
"HGF/NK1 (truncated HGF variant; N-terminal domain and first kringle domain), eukaryotically expressed from the pH46 (2.2 kb) coding region (from UniProt P14210 32-210) (ligand)","[3H]-thymidine incorporation in B5/589 cells, percent of the maximal DNA synthesis elicited by HGF/SF (% of maximal HGF/SF response at 8 nM)",[1],20
same,inhibition of HGF/SF mitogenic activity in the B5/589 bioassay: molar excess for ~50% reduction (fold molar excess over HGF/SF),[1],20
same,affinity for Met relative to full-length HGF/SF (fold of HGF/SF affinity),[2],0.25
